# Experimental data as given in patent publication US20230357342A1 (published 2023).
# Changes are numbered by the printed parent chain. Names and notes keep the numbering of the source.
# T1: IL-18 receptor on HEK-Blue IL18R reporter cells (UniProt Q13478 19-541; O95256 20-599, limits assumed)
# T1 sequence (looked up) 1: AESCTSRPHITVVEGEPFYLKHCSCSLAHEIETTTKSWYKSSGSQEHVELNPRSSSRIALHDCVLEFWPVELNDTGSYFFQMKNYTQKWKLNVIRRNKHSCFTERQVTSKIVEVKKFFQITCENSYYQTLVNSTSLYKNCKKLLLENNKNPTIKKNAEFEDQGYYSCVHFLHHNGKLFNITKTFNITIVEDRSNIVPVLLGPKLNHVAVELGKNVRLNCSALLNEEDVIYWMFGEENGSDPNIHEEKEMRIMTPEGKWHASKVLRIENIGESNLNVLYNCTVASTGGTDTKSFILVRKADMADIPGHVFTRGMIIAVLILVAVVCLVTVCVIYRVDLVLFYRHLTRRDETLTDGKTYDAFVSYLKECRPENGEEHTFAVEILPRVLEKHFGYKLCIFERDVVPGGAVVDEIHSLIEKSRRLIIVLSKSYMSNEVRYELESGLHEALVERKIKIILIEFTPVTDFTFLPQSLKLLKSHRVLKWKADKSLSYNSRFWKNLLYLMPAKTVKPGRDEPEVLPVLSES
# T1 sequence (looked up) 2: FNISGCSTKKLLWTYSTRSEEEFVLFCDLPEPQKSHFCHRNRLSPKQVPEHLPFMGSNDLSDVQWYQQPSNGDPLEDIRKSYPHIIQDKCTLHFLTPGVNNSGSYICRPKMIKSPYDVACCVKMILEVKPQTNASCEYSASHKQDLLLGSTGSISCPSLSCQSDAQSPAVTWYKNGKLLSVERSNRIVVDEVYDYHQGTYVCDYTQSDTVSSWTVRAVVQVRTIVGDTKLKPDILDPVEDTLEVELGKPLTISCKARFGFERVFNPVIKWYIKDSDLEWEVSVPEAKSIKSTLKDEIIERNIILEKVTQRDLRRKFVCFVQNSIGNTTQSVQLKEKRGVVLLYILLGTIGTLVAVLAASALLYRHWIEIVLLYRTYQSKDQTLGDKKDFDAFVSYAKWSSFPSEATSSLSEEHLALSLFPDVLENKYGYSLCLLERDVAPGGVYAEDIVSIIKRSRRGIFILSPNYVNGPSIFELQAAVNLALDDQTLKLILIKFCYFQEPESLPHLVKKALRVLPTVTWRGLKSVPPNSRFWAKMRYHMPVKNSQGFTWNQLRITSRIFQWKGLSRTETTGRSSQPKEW
# B1: modified IL-18 polypeptide SEQ ID NO: 30 (E6K, V11I, C38A, K53A, T63A, C76A, C127A) (ligand)
# chain: YFGKLKSKLSIIRNLNDQVLFIDQGNRPLFEDMTDSDARDNAPRTIFIISMYADSQPRGMAVAISVKCEKISTLSAENKIISFKEMNPPDNIKDTKSDIIFFQRSVPGHDNKMQFESSSYEGYFLAAEKERDLFKLILKKEDELGDRSIMFTVQNED
# B2: modified IL-18 polypeptide SEQ ID NO: 59 (E6K, C38A, K53A) (ligand)
# chain: B1 chain with I11V, A63T, A76C, A127C
# B3: modified IL-18 polypeptide SEQ ID NO: 60 (E6K, C38Q, K53A) (ligand)
# chain: B1 chain with I11V, A38Q, A63T, A76C, A127C
# B4: modified IL-18 polypeptide SEQ ID NO: 61 (E6K, C38A, K53A, C76A) (ligand)
# chain: B1 chain with I11V, A63T, A127C
# B5: modified IL-18 polypeptide SEQ ID NO: 62 (E6K, C38A, K53A, C127A) (ligand)
# chain: B1 chain with I11V, A63T, A76C
# B6: modified IL-18 polypeptide SEQ ID NO: 63 (E6K, C38A, K53A, C76A, C127A) (ligand)
# chain: B1 chain with I11V, A63T
# B7: modified IL-18 polypeptide SEQ ID NO: 204 (V11I, C38A, K53A, C76A, C127A) (ligand)
# chain: B1 chain with K6E, A63T
# B8: modified IL-18 polypeptide SEQ ID NO: 205 (V11I, C38A, K53A, T63A, C76A, C127A) (ligand)
# chain: B1 chain with K6E
# B9: modified IL-18 polypeptide SEQ ID NO: 206 (V11I, C38A, K53A, S55A, C76A, C127A) (ligand)
# chain: B1 chain with K6E, S55A, A63T
# B10: modified IL-18 polypeptide SEQ ID NO: 207 (V11I, C38A, M51G, K53A, C76A, C127A) (ligand)
# chain: B1 chain with K6E, M51G, A63T
# B11: modified IL-18 polypeptide SEQ ID NO: 208 (V11I, C38A, K53A, D54A, C76A, C127A) (ligand)
# chain: B1 chain with K6E, D54A, A63T
# B12: modified IL-18 polypeptide SEQ ID NO: 209 (F2A, V11I, C38A, K53A, C76A, C127A) (ligand)
# chain: B1 chain with F2A, K6E, A63T
# B13: modified IL-18 polypeptide SEQ ID NO: 210 (V11I, E31A, C38A, K53A, C76A, C127A) (ligand)
# chain: B1 chain with K6E, E31A, A63T
# B14: modified IL-18 polypeptide SEQ ID NO: 211 (V11I, T34A, C38A, K53A, C76A, C127A) (ligand)
# chain: B1 chain with K6E, T34A, A63T
# B15: modified IL-18 polypeptide SEQ ID NO: 212 (V11I, D35A, C38A, K53A, C76A, C127A) (ligand)
# chain: B1 chain with K6E, D35A, A63T
# B16: modified IL-18 polypeptide SEQ ID NO: 213 (V11I, S36A, C38A, K53A, C76A, C127A) (ligand)
# chain: B1 chain with K6E, S36A, A63T
# B17: modified IL-18 polypeptide SEQ ID NO: 214 (V11I, D37A, C38A, K53A, C76A, C127A) (ligand)
# chain: B1 chain with K6E, D37A, A63T
# B18: modified IL-18 polypeptide SEQ ID NO: 215 (V11I, E31A, D37A, C38A, K53A, C76A, C127A) (ligand)
# chain: B1 chain with K6E, E31A, D37A, A63T
# B19: modified IL-18 polypeptide SEQ ID NO: 216 (V11I, C38A, D40A, K53A, C76A, C127A) (ligand)
# chain: B1 chain with K6E, D40A, A63T
# B20: modified IL-18 polypeptide SEQ ID NO: 217 (V11I, C38A, N41A, K53A, C76A, C127A) (ligand)
# chain: B1 chain with K6E, N41A, A63T
# B21: modified IL-18 polypeptide SEQ ID NO: 218 (V11I, C38A, K53A, C76A, C127A, D132A) (ligand)
# chain: B1 chain with K6E, A63T, D132A
# B22: modified IL-18 polypeptide SEQ ID NO: 219 (V11I, C38A, K53A, C76A, G108A, C127A) (ligand)
# chain: B1 chain with K6E, A63T, G108A
# B23: modified IL-18 polypeptide SEQ ID NO: 220 (V11I, C38A, K53A, C76A, H109A, C127A) (ligand)
# chain: B1 chain with K6E, A63T, H109A
# B24: modified IL-18 polypeptide SEQ ID NO: 221 (V11I, C38A, K53A, C76A, D110A, C127A) (ligand)
# chain: B1 chain with K6E, A63T, D110A
# B25: modified IL-18 polypeptide SEQ ID NO: 222 (K8R, V11I, C38A, C76A, Q103E, C127A) (ligand)
# chain: B1 chain with K6E, K8R, A53K, A63T, Q103E
# B26: modified IL-18 polypeptide SEQ ID NO: 223 (K8E, V11I, C38A, C76A, Q103R, C127A) (ligand)
# chain: B1 chain with K6E, K8E, A53K, A63T, Q103R
# B27: modified IL-18 polypeptide SEQ ID NO: 224 (V11I, C38A, C76A, Q103K, C127A) (ligand)
# chain: B1 chain with K6E, A53K, A63T, Q103K
# B28: modified IL-18 polypeptide SEQ ID NO: 225 (V11I, C38A, S55H, C76A, C127A) (ligand)
# chain: B1 chain with K6E, A53K, S55H, A63T
# B29: modified IL-18 polypeptide SEQ ID NO: 226 (V11I, C38A, S55R, C76A, C127A) (ligand)
# chain: B1 chain with K6E, A53K, S55R, A63T
# B30: modified IL-18 polypeptide SEQ ID NO: 227 (V11I, C38A, S55T, C76A, C127A) (ligand)
# chain: B1 chain with K6E, A53K, S55T, A63T
# B31: modified IL-18 polypeptide SEQ ID NO: 228 (V11I, C38A, C76A, S105I, C127A) (ligand)
# chain: B1 chain with K6E, A53K, A63T, S105I
# B32: modified IL-18 polypeptide SEQ ID NO: 229 (V11I, C38A, C76A, S105K, C127A) (ligand)
# chain: B1 chain with K6E, A53K, A63T, S105K
# B33: modified IL-18 polypeptide SEQ ID NO: 230 (K8L, E6K, V11I, C38A, K53A, T63A, C76A, C127A) (ligand)
# chain: B1 chain with K8L
# B34: modified IL-18 polypeptide SEQ ID NO: 232 (E6K, V11I, C38A, I49M, K53A, T63A, C76A, C127A) (ligand)
# chain: B1 chain with I49M
# B35: modified IL-18 polypeptide SEQ ID NO: 233 (E6K, V11I, C38A, I49R, K53A, T63A, C76A, C127A) (ligand)
# chain: B1 chain with I49R
# B36: modified IL-18 polypeptide SEQ ID NO: 234 (E6K, V11I, C38A, K53A, T63A, C76A, Q103R, C127A) (ligand)
# chain: B1 chain with Q103R
# B37: modified IL-18 polypeptide SEQ ID NO: 235 (E6K, K8E, V11I, C38A, K53A, T63A, C76A, Q103R, C127A) (ligand)
# chain: B1 chain with K8E, Q103R
# B38: modified IL-18 polypeptide SEQ ID NO: 237 (E6K, V11I, C38A, K53A, T63A, C76A, C127A, V153E) (ligand)
# chain: B1 chain with V153E
# B39: modified IL-18 polypeptide SEQ ID NO: 238 (E6K, V11I, C38A, K53A, T63A, C76A, C127A, V153Y) (ligand)
# chain: B1 chain with V153Y
# B40: modified IL-18 polypeptide SEQ ID NO: 239 (E6K, V11I, C38A, M51G, K53A, T63A, C76A, C127A) (ligand)
# chain: B1 chain with M51G
# B41: modified IL-18 polypeptide SEQ ID NO: 240 (E6R, V11I, C38A, K53A, T63A, C76A, C127A) (ligand)
# chain: B1 chain with K6R
# B42: modified IL-18 polypeptide SEQ ID NO: 241 (N-terminal 4xG, E6K, V11I, C38A, K53A, T63A, C76A, C127A) (ligand)
# chain: GGGGYFGKLKSKLSIIRNLNDQVLFIDQGNRPLFEDMTDSDARDNAPRTIFIISMYADSQPRGMAVAISVKCEKISTLSAENKIISFKEMNPPDNIKDTKSDIIFFQRSVPGHDNKMQFESSSYEGYFLAAEKERDLFKLILKKEDELGDRSIMFTVQNED
# B43: modified IL-18 polypeptide SEQ ID NO: 242 (N-terminal G, E6K, V11I, C38A, K53A, T63A, C76A, C127A) (ligand)
# chain: GYFGKLKSKLSIIRNLNDQVLFIDQGNRPLFEDMTDSDARDNAPRTIFIISMYADSQPRGMAVAISVKCEKISTLSAENKIISFKEMNPPDNIKDTKSDIIFFQRSVPGHDNKMQFESSSYEGYFLAAEKERDLFKLILKKEDELGDRSIMFTVQNED
# B44: modified IL-18 polypeptide SEQ ID NO: 243 (Y1M, E6K, V11I, C38A, K53A, T63A, C76A, C127A) (ligand)
# chain: B1 chain with Y1M
# Biological target: T1, IL-18 receptor on HEK-Blue IL18R …
# Experiment: cell-based or functional assay
row,Binder,"EC50, HEK-Blue IL18R reporter (SEAP) [nM]"
1,B1,0.053
2,B2,0.268
3,B3,0.203
4,B4,0.084
5,B5,0.17
6,B6,0.0139
7,B7,0.98
8,B8,0.17
9,B9,3.63
10,B10,0.8
11,B11,1
12,B12,7.28
13,B13,6.6
14,B14,0.7
15,B15,13.1
16,B16,0.25
17,B17,14.1
18,B18,11.9
19,B19,0.52
20,B20,11.7
21,B21,1.95
22,B22,15.6

row,Binder,"EC50, HEK-Blue IL18R reporter (SEAP) [nM]"
1,B23,19.5
2,B24,2.02
3,B25,2.01
4,B26,2.3
5,B27,1.5
6,B28,3.14
7,B29,1.91
8,B30,4.73
9,B31,5.37
10,B32,7.73
11,B33,0.29
12,B34,0.07
13,B35,0.04
14,B36,0.26
15,B37,0.4
16,B38,0.1
17,B39,0.08
18,B40,0.1
19,B41,0.04
20,B42,2.5
21,B43,1.68
22,B44,0.02
